Measured values as given in article doi:10.1101/758409.

Columns and labels:
[1] = biological target: DDA1-DDB1ΔB-DCAF15Δpro triplex (human) (UniProt Q66K64); assay: BLI
[2] = biological target: DDA1-DDB1ΔB-DCAF15Δpro triplex (human) (UniProt Q66K64); assay: ITC

Chain of RRM1-RRM2 domain of RBM39 (R1R2) (Q14498 150-331): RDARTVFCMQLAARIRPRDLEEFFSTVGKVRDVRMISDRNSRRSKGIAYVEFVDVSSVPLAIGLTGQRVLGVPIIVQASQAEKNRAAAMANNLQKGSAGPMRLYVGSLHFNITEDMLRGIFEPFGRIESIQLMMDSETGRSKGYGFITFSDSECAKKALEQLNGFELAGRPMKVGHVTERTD

| Kd [1] [µM] | Kd [2] [µM] | Substance |
| --- | --- | --- |
| 1.2 | – | R1R2(M265L) (from UniProt Q14498 150-331) (domain or fragment) |
| 4.6 | 6.4 | RRM1-RRM2 domain of RBM39 (R1R2) (from UniProt Q14498 150-331) (domain or fragment) |
